T1: 5-TAMRA-MpTPpYV-NH2 substrate peptide (bis-phosphorylated)
T1 chain: MTPYV

B1: His-PPM1E (PPM1E phosphatase with an N-terminal His-tag, expressed in Sf9 cells) (protein)
chain: MAGCIPEEKTYRRFLELFLGEFRGPCGGGEPEPEPEPEPEPEPESEPEPEPELVEAEAAEASVEEPGEEAATVAATEEGDQEQDPEPEEEAAVEGEEEEEGAATAAAAPGHSAVPPPPPQLPPLPPLPRPLSERITREEVEGESLDLCLQQLYKYNCPSFLAAALARATSDEVLQSDLSAHYIPKETDGTEGTVEIETVKLARSVFSKLHEICCSWVKDFPLRRRPQLYYETSIHAIKNMRRKMEDKHVCIPDFNMLFNLEDQEEQAYFAVFDGHGGVDAAIYASIHLHVNLVRQEMFPHDPAEALCRAFRVTDERFVQKAARESLRCGTTGVVTFIRGNMLHVAWVGDSQVMLVRKGQAVELMKPHKPDREDEKQRIEALGGCVVWFGAWRVNGSLSVSRAIGDAEHKPYICGDADSASTVLDGTEDYLILACDGFYDTVNPDEAVKVVSDHLKENNGDSSMVAHKLVASARDAGSSDNITVIVVFLRDMNKAVNVSEESDWTENSFQGGQEDGGDDKENHGECKRPWPQHQCSAPADLGYDGRVDSFTDRTSLSPGSQINVLEDPGYLDLTQIEASKPHSAQFLLPVEMFGPGAPKKANLINELMMEKKSVQSSLPEWSGAGEFPTAFNLGSTGEQIYRMQSLSPVCSGLENEQFKSPGNRVSRLSHLRHHYSKKWHRFRFNPKFYSFLSAQEPSHKIGTSLSSLTGSGKRNRIRSSLPWRQNSWKGYSENMRKLRKTHDIPCPDLPWSYKIE
B2: Full length PPM1E (SEQ ID NO: 1) overexpressed in H4 neuroglioma cells and rat hippocampal primary neurons (protein)
chain: B1 chain

Columns and labels:
[1] = target: 5-TAMRA-MpTPpYV-NH2 substrate peptide (bis-phosphorylated); assay: cell-based or functional assay
[2] = target: T1, 5-TAMRA-MpTPpYV-NH2 substrate peptide …
[3] = target: CaMKII alpha isoform (about 50 kDa), phosphorylated at Thr286
[4] = target: CaMKII beta isoform (about 57 kDa), phosphorylated at Thr286

Binder | IC50 (EC50) of the PPM1E titration, decrease of polarization [1] | polarization at a concentration of PPM1E of 33 nM [2] | polarization at a concentration of PPM1E of 0.8 µM [2] | dephosphorylation of pCaMKII alpha band (western blot) [3] | phosphorylation of CaMKII relative to wildtype HC neurons (western blot) [3] | dephosphorylation of pCaMKII beta band (western blot) [4] | phosphorylation of CaMKII relative to wildtype HC neurons (western blot) [4]
B1 | 160 nM | a polarization of about 147 mP (milli-Polarization) was measured | the polarization decreased to about 123 mP |  |  |  | 
B2 |  |  |  | PPM1E phosphatase is dephosphorylating the beta isoform (57 kDa) as well as the alpha isoform (50 kDa) of CaMKII | the phosphorylation of CaMKII is decreasing to 50% of the phosphorylation status of wildtype cells by increasing the level of PPM1E expression 12 times | PPM1E phosphatase is dephosphorylating the beta isoform (57 kDa) as well as the alpha isoform (50 kDa) of CaMKII | the phosphorylation of CaMKII is decreasing to 50% of the phosphorylation status of wildtype cells by increasing the level of PPM1E expression 12 times

Reference: US20100261182A1
